Residue numbers refer to the chain shown, from its start.

The assay addresses Recombinant Human TNF-α/TNFSF1A (human, UniProt P01375 77-233). Put plainly: cell-based or functional assay.

Recombinant Human TNF-α/TNFSF1A, sequence (P01375 77-233 limits assumed): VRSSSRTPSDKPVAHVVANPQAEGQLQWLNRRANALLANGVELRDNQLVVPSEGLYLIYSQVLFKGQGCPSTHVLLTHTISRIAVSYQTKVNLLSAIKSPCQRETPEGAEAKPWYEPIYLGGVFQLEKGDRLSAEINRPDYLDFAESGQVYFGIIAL

B1: DVD2698 (bispecific antibody, IgG1)
VH: EVQLVQSGAEVKKPGASVKVSCKASGYTFTKYWLGWVRQAPGQGLEWMGDIYPGYDYTHYNEKFKDRVTLTTDTSTSTAYMELRSLRSDDTAVYYCARSDGSSTYWGQGTLVTVSSGGGGSGGGGSEVQLVESGGGLVQPGGSLRLSCAASGFTFSNYGVTWVRQAPGKGLEWVSMIWADGSTHYASSVKGRFTISRDNSKNTLYLQMNSLRAEDTAVYYCAREWQHGPVAYWGQGTLVTVSS
VL: DVLMTQTPLSLPVTPGEPASISCTSSQNIVHSNGNTYLEWYLQKPGQSPQLLIYKVSNRFSGVPDRFSGSGSGTDFTLKISRVEAEDVGVYYCFQVSHVPYTFGGGTKVEIKRGGSGGGGSGDIQMTQSPSSLSASVGDRVTITCRASQLVSSAVAWYQQKPGKAPKLLIYWASARHTGVPSRFSGSGSGTDFTLTISSLQPEDFATYYCQQHYKTPFTFGQGTKLEIKR
On to B1, for which the “C-Terminal VD huTNFα Neutralization Assay IC50” value worked out at 0.085 nM.

B2: DVD3122 (bispecific antibody, IgG1)
VH: EVQLVQSGAEVKKPGASVKVSCKASGYTFTTYGVSWVRQAPGQGLEWMGEIYPGNYNTYYNEKFRGRVTMTTDTSTSTAYMELRSLRSDDTAVYYCARWRTSYFSDYGYFDYWGQGTTVTVSSASTKGPSVFPLAPEVQLVQSGAEVKKPGASVKVSCKASGYTFNNYGIIWVRQAPGQGLEWMGWINTYTGKPTYAQKFQGRVTMTTDTSTSTAYMELSSLRSEDTAVYYCARKLFNTVAVTDNAMDYWGQGTTVTVSS
VL: DVVMTQSPLSLPVTLGQPASISCRSSQSLVHSHGNTYLHWYQQRPGQSPRLLIYTVSNRFSGVPDRFSGSGSGTDFTLKISRVEAEDVGVYYCSQSTHVPYTFGGGTKVEIKRTVAAPDIQMTQSPSSLSASVGDRVTITCRASQDIENYLNWYQQKPGKAPKLLIYYTSRLQSGVPSRFSGSGSGTDFTLTISSLQPEDFATYFCQQGNTQPPTFGQGTKLEIKR
Regarding B2, the “C-Terminal VD huTNFα Neutralization Assay IC50” value came out at 0.018 nM.

B3: DVD2694 (bispecific antibody, IgG1)
VH: EVQLVESGGGLVQPGGSLRLSCAASGFTFSNYGVTWVRQAPGKGLEWVSMIWADGSTHYASSVKGRFTISRDNSKNTLYLQMNSLRAEDTAVYYCAREWQHGPVAYWGQGTLVTVSSASTKGPEVQLVQSGAEVKKPGASVKVSCKASGYTFTKYWLGWVRQAPGQGLEWMGDIYPGYDYTHYNEKFKDRVTLTTDTSTSTAYMELRSLRSDDTAVYYCARSDGSSTYWGQGTLVTVSS
VL: DIQMTQSPSSLSASVGDRVTITCRASQLVSSAVAWYQQKPGKAPKLLIYWASARHTGVPSRFSGSGSGTDFTLTISSLQPEDFATYYCQQHYKTPFTFGQGTKLEIKRTVAAPDVLMTQTPLSLPVTPGEPASISCTSSQNIVHSNGNTYLEWYLQKPGQSPQLLIYKVSNRFSGVPDRFSGSGSGTDFTLKISRVEAEDVGVYYCFQVSHVPYTFGGGTKVEIKR
Consider B3, for which the “N-Terminal VD huTNFα Neutralization Assay IC50” value amounted to 0.001 nM.

B4: DVD2747 (bispecific antibody, IgG1)
VH: EVQLVESGGGLVQPGGSLRLSCAASGFTFSNYGVEWVRQAPGKGLEWVSGIWADGSTHYADTVKSRFTISRDNSKNTLYLQMNSLRAEDTAVYYCAREWQHGPVAYWGQGTLVTVSSASTKGPSVFPLAPEVQLVQSGAEVKKPGASVKVSCKASGYTFTKYWLGWVRQAPGQGLEWMGDIYPGYDYTHYNEKFKDRVTLTTDTSTSTAYMELRSLRSDDTAVYYCARSDGSSTYWGQGTLVTVSS
VL: B3 VL with R24K, A53T, R54L, K93R
On to B4, for which the “N-Terminal VD huTNFα Neutralization Assay IC50” value worked out at 0.003 nM.

B5: DVD2744 (bispecific antibody, IgG1)
VH: B3 VH with T35E, M50G, S61D, S62T, G65S
VL: B3 VL with R24K, A53T, R54L, K93R
As to B5, the “N-Terminal VD huTNFα Neutralization Assay IC50” value came to 0.003 nM.

B6: DVD2746 (bispecific antibody, IgG1)
VH: B3 VH with T35E, M50G, S61D, S62T, G65S
VL: DIQMTQSPSSLSASVGDRVTITCKASQLVSSAVAWYQQKPGKAPKLLIYWASTLHTGVPSRFSGSGSGTDFTLTISSLQPEDFATYYCQQHYRTPFTFGQGTKLEIKRTVAAPSVFIFPPDVLMTQTPLSLPVTPGEPASISCTSSQNIVHSNGNTYLEWYLQKPGQSPQLLIYKVSNRFSGVPDRFSGSGSGTDFTLKISRVEAEDVGVYYCFQVSHVPYTFGGGTKVEIKR
Turning to B6, the “N-Terminal VD huTNFα Neutralization Assay IC50” value is 0.006 nM.

B7: DVD2699 (bispecific antibody, IgG1)
VH: EVQLVQSGAEVKKPGASVKVSCKASGYTFTKYWLGWVRQAPGQGLEWMGDIYPGYDYTHYNEKFKDRVTLTTDTSTSTAYMELRSLRSDDTAVYYCARSDGSSTYWGQGTLVTVSSASTKGPEVQLVESGGGLVQPGGSLRLSCAASGFTFSNYGVTWVRQAPGKGLEWVSMIWADGSTHYASSVKGRFTISRDNSKNTLYLQMNSLRAEDTAVYYCAREWQHGPVAYWGQGTLVTVSS
VL: DVLMTQTPLSLPVTPGEPASISCTSSQNIVHSNGNTYLEWYLQKPGQSPQLLIYKVSNRFSGVPDRFSGSGSGTDFTLKISRVEAEDVGVYYCFQVSHVPYTFGGGTKVEIKRTVAAPDIQMTQSPSSLSASVGDRVTITCRASQLVSSAVAWYQQKPGKAPKLLIYWASARHTGVPSRFSGSGSGTDFTLTISSLQPEDFATYYCQQHYKTPFTFGQGTKLEIKR
In the case of B7, the “C-Terminal VD huTNFα Neutralization Assay IC50” value amounted to 0.064 nM.

B8: DVD2702 (bispecific antibody, IgG1)
VH: EVQLVQSGAEVKKPGASVKVSCKASGYTFTKYWLGWVRQAPGQGLEWMGDIYPGYDYTHYNEKFKDRVTLTTDTSTSTAYMELRSLRSDDTAVYYCARSDGSSTYWGQGTLVTVSSASTKGPSVFPLAPEVQLVESGGGLVQPGGSLRLSCAASGFTFSNYGVTWVRQAPGKGLEWVSMIWADGSTHYASSVKGRFTISRDNSKNTLYLQMNSLRAEDTAVYYCAREWQHGPVAYWGQGTLVTVSS
VL: B7 VL
Regarding B8, the “C-Terminal VD huTNFα Neutralization Assay IC50” value was found to be 0.106 nM.

B9: DVD2701 (bispecific antibody, IgG1)
VH: B7 VH
VL: DVLMTQTPLSLPVTPGEPASISCTSSQNIVHSNGNTYLEWYLQKPGQSPQLLIYKVSNRFSGVPDRFSGSGSGTDFTLKISRVEAEDVGVYYCFQVSHVPYTFGGGTKVEIKRTVAAPSVFIFPPDIQMTQSPSSLSASVGDRVTITCRASQLVSSAVAWYQQKPGKAPKLLIYWASARHTGVPSRFSGSGSGTDFTLTISSLQPEDFATYYCQQHYKTPFTFGQGTKLEIKR
For the molecule B9, the “C-Terminal VD huTNFα Neutralization Assay IC50” value came out at 0.036 nM.

B10: DVD2693 (bispecific antibody, IgG1)
VH: EVQLVESGGGLVQPGGSLRLSCAASGFTFSNYGVTWVRQAPGKGLEWVSMIWADGSTHYASSVKGRFTISRDNSKNTLYLQMNSLRAEDTAVYYCAREWQHGPVAYWGQGTLVTVSSGGGGSGGGGSEVQLVQSGAEVKKPGASVKVSCKASGYTFTKYWLGWVRQAPGQGLEWMGDIYPGYDYTHYNEKFKDRVTLTTDTSTSTAYMELRSLRSDDTAVYYCARSDGSSTYWGQGTLVTVSS
VL: DIQMTQSPSSLSASVGDRVTITCRASQLVSSAVAWYQQKPGKAPKLLIYWASARHTGVPSRFSGSGSGTDFTLTISSLQPEDFATYYCQQHYKTPFTFGQGTKLEIKRGGSGGGGSGDVLMTQTPLSLPVTPGEPASISCTSSQNIVHSNGNTYLEWYLQKPGQSPQLLIYKVSNRFSGVPDRFSGSGSGTDFTLKISRVEAEDVGVYYCFQVSHVPYTFGGGTKVEIKR
On to B10, for which the “N-Terminal VD huTNFα Neutralization Assay IC50” value came to 0.001 nM.

B11: DVD2743 (bispecific antibody, IgG1)
VH: B10 VH with T35E, M50G, S61D, S62T, G65S
VL: B10 VL with R24K, A53T, R54L, K93R
On to B11, for which the “N-Terminal VD huTNFα Neutralization Assay IC50” value was 0.006 nM.

B12: DVD3167 (bispecific antibody, IgG1)
VH: EVQLVQSGAEVKKPGASVKVSCKASGYTFANYGIIWVRQAPGQGLEWMGWINTYTGKPTYAQKFQGRVTMTTDTSTSTAYMELSSLRSEDTAVYYCARKLFTTMDVTDNAMDYWGQGTTVTVSSASTKGPSVFPLAPEVQLVQSGAEVKKPGASVKVSCKASGYTFTSYWMHWVRQAPGQGLEWIGNINPKGGSNIYNEKFQGRVTMTRDTSISTAYMELSRLRSDDTAVYYCARLDYFGDSFDLWGQGTTVTVSS
VL: DIQMTQSPSSLSASVGDRVTITCRASQDISQYLNWYQQKPGKAPKLLIYYTSRLQSGVPSRFSGSGSGTDFTLTISSLQPEDFATYFCQQGNTWPPTFGQGTKLEIKRTVAAPDIQMTQSPSSLSASVGDRVTITCRASQGIRNYLNWYQQKPGKAPKLLIYYASNLEVGVPSRFSGSGSGTDYTLTISSLQPEDFATYYCQQDNRFPYTFGGGTKVEIKR
For the molecule B12, the “N-Terminal VD huTNFα Neutralization Assay IC50” value is 0.018 nM.

B13: DVD3177 (bispecific antibody, IgG1)
VH: B12 VH with A30N, T102N, M104V, D105A
VL: B12 VL with S30E, Q31N, W94Q
As to B13, the “N-Terminal VD huTNFα Neutralization Assay IC50” value is 0.022 nM.

These data come from patent publication US20140271457A1 (AbbVie / Abbott, published 2014).
